Data reported in patent US20190038774A1.

Biological target: MHCI antigen presented on MNs
Assay: cell-based or functional assay

Substance: killer cell immunoglobulin-like receptor 3DL2 (KIR3DL2) (from UniProt P43630 22-455)
- MN death on co-culture with kir3dl2 shRNA treated ALS astrocytes, day 7: 50%
